Molecular target: T1, Flag-tagged CDK9 S90A (human, UniProt P50750 1-372, S90A)
T1 construct: also called Flag-CDK9 S90A
Assay: co-IP; Flag-CDK9 (WT or S90A) precipitated with anti-Flag antibodies from lysates of 293T cells co-transfected with cyclin T1, 48 hrs post-transfection; whole cell lysis buffer (50 mM Tris-HCl pH 7.5, 0.5 M NaCl, 1% NP-40, 0.1% SDS); IP 2 hrs at 4°C in TNN buffer (50 mM Tris-HCl pH 7.5, 150 mM NaCl, 1% NP-40); immunoblot for Hexim1, CDK9 and cyclin T1
Conditions: partners not purified

T1 sequence (P50750 whole entry S90A): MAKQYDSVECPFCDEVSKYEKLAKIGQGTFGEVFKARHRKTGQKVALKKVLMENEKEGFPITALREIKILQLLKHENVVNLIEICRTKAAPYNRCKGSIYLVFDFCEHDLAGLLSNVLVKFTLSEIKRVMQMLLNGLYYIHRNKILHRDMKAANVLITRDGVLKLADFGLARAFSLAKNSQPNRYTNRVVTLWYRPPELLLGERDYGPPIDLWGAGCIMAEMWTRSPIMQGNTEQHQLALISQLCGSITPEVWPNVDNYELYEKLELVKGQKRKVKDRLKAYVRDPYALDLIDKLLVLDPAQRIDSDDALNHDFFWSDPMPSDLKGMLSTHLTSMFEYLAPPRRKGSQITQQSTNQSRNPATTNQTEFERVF

B1: HEXIM1 (natural protein, human (endogenous in 293T), UniProt O94992 1-359, looked up)
chain: MAEPFLSEYQHQPQTSNCTGAAAVQEELNPERPPGAEERVPEEDSRWQSRAFPQLGGRPGPEGEGSLESQPPPLQTQACPESSCLREGEKGQNGDDSSAGGDFPPPAEVEPTPEAELLAQPCHDSEASKLGAPAAGGEEEWGQQQRQLGKKKHRRRPSKKKRHWKPYYKLTWEEKKKFDEKQSLRASRIRAEMFAKGQPVAPYNTTQFLMDDHDQEEPDLKTGLYSKRAAAKSDDTSDDDFMEEGGEEDGGSDGMGGDGSEFLQRDFSETYERYHTESLQNMSKQELIKEYLELEKCLSRMEDENNRLRLESKRLGGDDARVRELELELDRLRAENLQLLTENELHRQQERAPLSKFGD
notes: source: endogenous, 293T lysate
Question: How did the “HEXIM1 co-precipitated, relative to WT CDK9” value turn out when B1 was run?
Answer: ~50 % less

Source: paper PMC3515335, “CDK2 Regulates HIV-1 Transcription by Phosphorylation of CDK9 on Serine 90” (Retrovirology, 2012)
